Laboratory results from the supplement of paper PMC5998384.

Key:
[1] = system: HeLa Kyoto; test: solubility change mitosis vs G1/S (difference of NP-40 vs SDS log2 ratios) (log2 ratio difference); higher = more soluble in mitosis
[2] = system: HeLa Kyoto; test: melting temperature (median over replicates), in situ; higher = more thermally stable
[3] = system: HeLa Kyoto; test: thermal stability score vs G1/S (z-score of summed log2 fold changes over temperatures); higher = more thermally stable than in G1/S
[4] = cell cycle stage: early G1 (4.5 h after nocodazole release)
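Wherever melting temperature (median over replicates), in situ is given: HeLa Kyoto cells synchronized by double thymidine or nocodazole block, proteins quantified by TMT10plex mass spectrometry, three independent biological replicates.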
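Wherever solubility change mitosis vs G1/S (difference of NP-40 vs SDS log2 ratios) is given: synchronized HeLa Kyoto cells (double thymidine block for G1/S, nocodazole release for mitosis), protein amounts in NP-40 versus SDS lysates quantified by mass spectrometry, three biological replicates.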
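Wherever thermal stability score vs G1/S (z-score of summed log2 fold changes over temperatures) is given: synchronized HeLa Kyoto cells, proteins quantified by TMT10plex mass spectrometry, three biological replicates, mitosis taken 0.5 h after nocodazole release, G1/S directly after double thymidine block.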

Chain of LDHAL6A (chain, as listed by the source): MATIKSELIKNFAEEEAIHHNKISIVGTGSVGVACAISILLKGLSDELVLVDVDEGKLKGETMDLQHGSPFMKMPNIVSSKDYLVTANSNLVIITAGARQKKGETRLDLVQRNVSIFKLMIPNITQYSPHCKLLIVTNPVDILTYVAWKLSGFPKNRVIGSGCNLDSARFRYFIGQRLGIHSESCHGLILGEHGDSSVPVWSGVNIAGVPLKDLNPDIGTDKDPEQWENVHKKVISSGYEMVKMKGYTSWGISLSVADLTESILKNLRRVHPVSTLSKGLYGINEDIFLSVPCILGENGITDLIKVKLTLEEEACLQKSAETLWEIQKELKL

In the case of RPLP0, the “solubility change mitosis (log2)” value [1] is reported as 0.6.
In the case of PACSIN3, the “solubility change mitosis (log2)” value [1] is reported as 0.0183.
In the case of “MADVINVSVNLEAFSQAISAIQALRSSVSRVFDCLKDGMRNKETLEGREKAFIAHFQDNLHSVNRDLNELERLSNLVGKPSENHPLHNSGLLSLDPVQDKTPLYSQLLQAYKWSNKLQYHAGLASGLLNQQSLKRSANQMGVSAKRRPKAQPTTLVLPPQYVDDVISRIDRMFPEMSIHLSRPNGTSAMLLVTLGKVLKVIVVMRSLFIDRTIVKGYNENVYTEDGKLDIWSKSNYQVFQKVTDHATTALLHYQLPQMPDVVVRSFMTWLRSYIKLFQAPCQRCGKFLQDGLPPTWRDFRTLEAFHDTCRQ [MED27]”, the melting temperature ([2]; cell cycle stage: G1/S) is reported as 48.5 °C, the thermal stability score [3, 4] is reported as -0.132 and the thermal stability score ([3]; cell cycle stage: mitosis) is reported as 0.247.
With MRPL57 the “solubility change mitosis (log2)” value [1] was -0.109.
In the case of MRTO4, the “solubility change mitosis (log2)” value [1] is reported as 0.303.
RPL14 was tested, and the “solubility change mitosis (log2)” value [1] was 0.811.
With CDC73 the “solubility change mitosis (log2)” value [1] was -0.0838.
Substance “MTQNKLKLCSKANVYTEVPDGGWGWAVAVSFFFVEVFTYGIIKTFGVFFNDLMDSFNESNSRISWIISICVFVLTFSAPLATVLSNRFGHRLVVMLGGLLVSTGMVAASFSQEVSHMYVAIGIISGLGYCFSFLPTVTILSQYFGKRRSIVTAVASTGECFAVFAFAPAIMALKERIGWRYSLLFVGLLQLNIVIFGALLRPIFIRGPASPKIVIQENRKEAQYMLENEKTRTSIDSIDSGVELTTSPKNVPTHTNLELEPKADMQQVLVKTSPRPSEKKAPLLDFSILKEKSFICYALFGLFATLGFFAPSLYIIPLGISLGIDQDRAAFLLSTMAIAEVFGRIGAGFVLNREPIRKIYIELICVILLTVSLFAFTFATEFWGLMSCSIFFGFMVGTIGGTHIPLLAEDDVVGIEKMSSAAGVYIFIQSIAGLAGPPLAGLLVDQSKIYSRAFYSCAAGMALAAVCLALVRPCKMGLCQHHHSGETKVVSHRGKTLQDIPEDFLEMDLAKNEHRVHVQMEPV [SLC16A6]” has a melting temperature ([2]; cell cycle stage: G1/S) of 54.8 °C, a melting temperature ([2]; cell cycle stage: mitosis) of 54.4 °C and a thermal stability score [3, 4] of -2.68. The thermal stability score ([3]; cell cycle stage: mitosis) was -4.18.
Substance “MREYKLVVLGSGGVGKSALTVQFVQGIFVEKYDPTIEDSYRKQVEVDAQQCMLEILDTAGTEQFTAMRDLYMKNGQGFALVYSITAQSTFNDLQDLREQILRVKDTDDVPMILVGNKCDLEDERVVGKEQGQNLARQWNNCAFLESSAKSKINVNEIFYDLVRQINRKTPVPGKARKKSSCQLL [RAP1B]” has a melting temperature ([2]; cell cycle stage: G1/S) of 58.5 °C, a melting temperature ([2]; cell cycle stage: mitosis) of 58.5 °C and a thermal stability score [3, 4] of -0.701. It also gave a thermal stability score ([3]; cell cycle stage: mitosis) of -1.33.
For LDHAL6A, the melting temperature ([2]; cell cycle stage: G1/S) was 61.6 °C, the thermal stability score [3, 4] was -1.33 and the thermal stability score ([3]; cell cycle stage: mitosis) was -1.23.
For BRD4, the “solubility change mitosis (log2)” value [1] was 0.176.
With KDM1A the “solubility change mitosis (log2)” value [1] was -0.0676.
In the case of MRPL50, the “solubility change mitosis (log2)” value [1] is reported as 0.178.
With RPL10 the “solubility change mitosis (log2)” value [1] was 0.638.
For RPS7, the “solubility change mitosis (log2)” value [1] was 0.675.
“MELWPCLAAALLLLLLLVQLSRAAEFYAKVALYCALCFTVSAVASLVCLLRHGGRTVENMSIIGWFVRSFKYFYGLRFEVRDPRRLQEARPCVIVSNHQSILDMMGLMEVLPERCVQIAKRELLFLGPVGLIMYLGGVFFINRQRSSTAMTVMADLGERMVRENLKVWIYPEGTRNDNGDLLPFKKGAFYLAVQAQVPIVPVVYSSFSSFYNTKKKFFTSGTVTVQVLEAIPTSGLTAADVPALVDTCHRAMRTTFLHISKTPQENGATAGSGVQPAQ [AGPAT2]” gave a melting temperature ([2]; cell cycle stage: mitosis) of 52.2 °C, a thermal stability score [3, 4] of -0.0581 and a thermal stability score ([3]; cell cycle stage: mitosis) of 0.548.
AKR1B1 was tested, and the “solubility change mitosis (log2)” value [1] was -0.0682.
“MAACRALKAVLVDLSGTLHIEDAAVPGAQEALKRLRGASVIIRFVTNTTKESKQDLLERLRKLEFDISEDEIFTSLTAARSLLERKQVRPMLLVDDRALPDFKGIQTSDPNAVVMGLAPEHFHYQILNQAFRLLLDGAPLIAIHKARYYKRKDGLALGPGPFVTALEYATDTKATVVGKPEKTFFLEALRGTGCEPEEAVMIGDDCRDDVGGAQDVGMLGILVKTGKYRASDEEKINPPPYLTCESFPHAVDHILQHLL [HDHD2]” showed a melting temperature ([2]; cell cycle stage: G1/S) of 57.3 °C, a melting temperature ([2]; cell cycle stage: mitosis) of 59 °C and a thermal stability score [3, 4] of -2.07. It also gave a thermal stability score ([3]; cell cycle stage: mitosis) of -2.57.
With RPL7L1 the “solubility change mitosis (log2)” value [1] was 1.18.
“MREIVHIQAGQCGNQIGAKFWEVISDEHGIDPTGSYHGDSDLQLERINVYYNEAAGNKYVPRAILVDLEPGTMDSVRSGPFGQIFRPDNFVFGQSGAGNNWAKGHYTEGAELVDSVLDVVRKESESCDCLQGFQLTHSLGGGTGSGMGTLLISKIREEYPDRIMNTFSVMPSPKVSDTVVEPYNATLSVHQLVENTDETYSIDNEALYDICFRTLKLTTPTYGDLNHLVSATMSGVTTCLRFPGQLNADLRKLAVNMVPFPRLHFFMPGFAPLTSRGSQQYRALTVPELTQQMFDSKNMMAACDPRHGRYLTVAAIFRGRMSMKEVDEQMLNVQNKNSSYFVEWIPNNVKTAVCDIPPRGLKMSATFIGNSTAIQELFKRISEQFTAMFRRKAFLHWYTGEGMDEMEFTEAESNMNDLVSEYQQYQDATADEQGEFEEEEGEDEA [TUBB2A]” gave a melting temperature ([2]; cell cycle stage: G1/S) of 56.7 °C, a melting temperature ([2]; cell cycle stage: mitosis) of 54.9 °C and a thermal stability score [3, 4] of -0.598. It also gave a thermal stability score ([3]; cell cycle stage: mitosis) of -2.95.
For PPIA, the “solubility change mitosis (log2)” value [1] was -0.0495.
With MRPS12 the “solubility change mitosis (log2)” value [1] was 0.0958.
For RPL8, the “solubility change mitosis (log2)” value [1] was 0.63.
MRPL44 was tested, and the “solubility change mitosis (log2)” value [1] was -0.0742.
With TPCN1 the “solubility change mitosis (log2)” value [1] was -0.0955.
RPSA was tested, and the “solubility change mitosis (log2)” value [1] was 0.449.
RPL37A was tested, and the “solubility change mitosis (log2)” value [1] was 0.616.
With ICT1 the “solubility change mitosis (log2)” value [1] was 0.134.
For RPS17, the “solubility change mitosis (log2)” value [1] was 0.529.
With RPS23 the “solubility change mitosis (log2)” value [1] was 0.687.
RPL17 was tested, and the “solubility change mitosis (log2)” value [1] was 0.699.
“MSLLNCENSCGSSQSESDCCVAMASSCSAVTKDDSVGGTASTGNLSSSFMEEIQGYDVEFDPPLESKYECPICLMALREAVQTPCGHRFCKACIIKSIRDAGHKCPVDNEILLENQLFPDNFAKREILSLMVKCPNEGCLHKMELRHLEDHQAHCEFALMDCPQCQRPFQKFHINIHILKDCPRRQVSCDNCAASMAFEDKEIHDQNCPLANVICEYCNTILIREQMPNHYDLDCPTAPIPCTFSTFGCHEKMQRNHLARHLQENTQSHMRMLAQAVHSLSVIPDSGYISEVRNFQETIHQLEGRLVRQDHQIRELTAKMETQSMYVSELKRTIRTLEDKVAEIEAQQCNGIYIWKIGNFGMHLKCQEEEKPVVIHSPGFYTGKPGYKLCMRLHLQLPTAQRCANYISLFVHTMQGEYDSHLPWPFQGTIRLTILDQSEAPVRQNHEEIMDAKPELLAFQRPTIPRNPKGFGYVTFMHLEALRQRTFIKDDTLLVRCEVSTRFDMGSLRREGFQPRSTDAGV [TRAF6]” was tested, and the melting temperature ([2]; cell cycle stage: G1/S) was 51.5 °C, the melting temperature ([2]; cell cycle stage: mitosis) was 51.3 °C and the thermal stability score [3, 4] was 0.286. The thermal stability score ([3]; cell cycle stage: mitosis) was -0.125.
